# Test results published in patent publication US10781456B2, “Carbon-neutral and carbon-positive photorespiration bypass routes supporting higher photosynthetic rate and yield” (Max-Planck-Gesellschaft zur Förderung der Wissenschaften …, priority 2015, dated 2020).
# T1: 3-phosphoglycerate kinase (Sus scrofa, UniProt Q7SIB7)
# T1 sequence (Q7SIB7 1-417): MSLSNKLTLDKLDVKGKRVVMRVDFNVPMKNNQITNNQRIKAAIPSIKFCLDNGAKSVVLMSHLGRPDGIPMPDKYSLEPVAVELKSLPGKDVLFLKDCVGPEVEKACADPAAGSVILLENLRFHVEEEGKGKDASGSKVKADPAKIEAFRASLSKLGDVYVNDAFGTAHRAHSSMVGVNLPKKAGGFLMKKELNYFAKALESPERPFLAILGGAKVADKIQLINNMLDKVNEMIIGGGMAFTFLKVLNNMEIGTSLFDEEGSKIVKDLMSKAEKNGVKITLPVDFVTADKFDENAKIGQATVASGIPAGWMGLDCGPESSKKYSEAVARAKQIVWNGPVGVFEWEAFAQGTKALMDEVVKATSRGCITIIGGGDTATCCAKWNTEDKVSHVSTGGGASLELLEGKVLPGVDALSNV
# T2: malonyl-CoA reductase from Chloroflexus aurantiacus (MCRCa), SEQ ID NO: 8 (Chloroflexus aurantiacus, UniProt Q6QQP7)
# T2 sequence (Q6QQP7 1-1220): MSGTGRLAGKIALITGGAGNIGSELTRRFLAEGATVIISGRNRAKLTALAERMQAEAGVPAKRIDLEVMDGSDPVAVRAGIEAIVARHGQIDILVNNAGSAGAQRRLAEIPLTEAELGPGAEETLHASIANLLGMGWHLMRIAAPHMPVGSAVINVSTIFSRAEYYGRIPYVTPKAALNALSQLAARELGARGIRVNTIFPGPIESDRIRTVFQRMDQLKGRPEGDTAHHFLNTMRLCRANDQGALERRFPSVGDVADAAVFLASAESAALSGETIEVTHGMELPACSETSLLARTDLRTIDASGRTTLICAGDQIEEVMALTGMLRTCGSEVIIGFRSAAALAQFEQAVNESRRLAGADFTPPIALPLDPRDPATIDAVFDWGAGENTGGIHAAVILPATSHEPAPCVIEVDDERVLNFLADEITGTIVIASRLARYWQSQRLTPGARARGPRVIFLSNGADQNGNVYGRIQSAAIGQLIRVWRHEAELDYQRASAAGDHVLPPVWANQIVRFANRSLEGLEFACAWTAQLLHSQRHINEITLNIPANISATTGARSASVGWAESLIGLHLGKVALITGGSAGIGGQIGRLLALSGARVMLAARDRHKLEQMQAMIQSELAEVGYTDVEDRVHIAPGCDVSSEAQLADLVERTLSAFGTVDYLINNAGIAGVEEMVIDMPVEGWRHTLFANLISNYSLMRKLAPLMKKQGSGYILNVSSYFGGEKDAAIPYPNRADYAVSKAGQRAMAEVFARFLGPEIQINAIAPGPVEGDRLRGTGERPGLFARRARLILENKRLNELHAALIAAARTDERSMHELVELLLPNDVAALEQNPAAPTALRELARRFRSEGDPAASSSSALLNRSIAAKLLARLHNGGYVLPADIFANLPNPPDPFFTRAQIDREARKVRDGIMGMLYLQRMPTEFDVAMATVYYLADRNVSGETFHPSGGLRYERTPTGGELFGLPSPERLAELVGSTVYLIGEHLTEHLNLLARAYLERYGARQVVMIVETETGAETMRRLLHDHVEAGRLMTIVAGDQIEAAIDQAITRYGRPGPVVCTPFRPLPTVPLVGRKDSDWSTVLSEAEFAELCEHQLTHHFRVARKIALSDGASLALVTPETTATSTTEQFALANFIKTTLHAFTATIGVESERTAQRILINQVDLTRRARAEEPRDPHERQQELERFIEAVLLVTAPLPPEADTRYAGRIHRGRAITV
# B1: propionyl-CoA transferase from Ralstonia eutropha (PCTRe), wild type, SEQ ID NO: 12 (Cupriavidus necator H16) (protein)
# chain: MKVITAREAAALVQDGWTVASAGFVGAGHAEAVTEALEQRFLQSGLPRDLTLVYSAGQGDRGARGVNHFGNAGMTASIVGGHWRSATRLATLAMAEQCEGYNLPQGVLTHLYRAIAGGKPGVMTKIGLHTFVDPRTAQDARYHGGAVNERARQAIAEGKACWVDAVDFRGDEYLFYPSFPIHCALIRCTAADARGNLSTHREAFHHELLAMAQAAHNSGGIVIAQVESLVDHHEILQAIHVPGILVDYVVVCDNPANHQMTFAESYNPAYVTPWQGEAAVAEAEAAPVAAGPLDARTIVQRRAVMELARRAPRVVNLGVGMPAAVGMLAHQAGLDGFTLTVEAGPIGGTPADGLSFGASAYPEAVVDQPAQFDFYEGGGIDLAILGLAELDGHGNVNVSKFGEGEGASIAGVGGFINITQSARAVVFMGTLTAGGLEVRAGDGGLQIVREGRVKKIVPEVSHLSFNGPYVASLGIPVLYITERAVFEMRAGADGEARLTLVEIAPGVDLQRDVLDQCSTPIAVAQDLREMDARLFQAGPLHL
# B2: MCRCa: malonyl-CoA reductase of Chloroflexus aurantiacus, NCBI accession no. AAS20429.1, SEQ ID NO: 8 (protein, listed as Chloroflexus aurantiacus)
# chain: T2 sequence (Q6QQP7 1-1220)
# modifications: [CDS]1..3663 from SEQ ID NO 7
# How the values were obtained:
# [1] = molecular target: T1, 3-phosphoglycerate kinase; conditions: Tompa 1986; Vas 1990; Szilagyi 1998; cited from earlier work
# [2] = molecular target: T2, malonyl-CoA reductase from Chloroflexus aurantiacus (MCRCa), SEQ ID NO: 8; conditions: read-out: apparent Km value for malonyl-CoA; Hügler et al., 2002; cited from earlier work
# [3] = substrate: O=C(O)CO; assay: purified protein, by the assay type; conditions: other: 37° C., pH 7.5, 2 mM acetyl-CoA, 10-800 mM glycolate, n=3
# glycolyl-CoA = assay: MCRCa coupled assay: glycolyl-CoA carboxylation by PCC coupled to two step reduction to glycerate by MCRCa (reactions 3#, 4#, 5), HPLC-hrMS and NADPH absorption; format: biochemical; conditions: tartronyl-CoA produced by PCCMe_D407I_Y143H
# Description: In addition to the above mentioned assays also another assay was performed in which the formation of tartronyl-CoA from glycolyl-CoA (reaction 3#) by the PCCMe_D407I_Y143H enzyme was directly coupled to its subsequent two step reduction via tartronate-semialdehyde (reaction 4#) to glycerate (reaction 5) by use of the purified MCRCa (Kröger et al., 2011, loc. cit.). The reaction mixture (300 μL) contained 200 mM NH4HCO3 buffer, pH 7.7, 5 mM MgCl2, 1 mM ATP, 0.4 mM NADPH, 43 μg PCCMe_D407I_Y143H, and 184 μg of MCRCa.
# To determine whether MCRCa was able to catalyze the two step reduction of tartonyl-CoA to glycerate (via tartronic semialdehyde), samples of the reaction mixture were withdrawn after all of the NADPH was consumed. The samples were stopped with formic acid (5% final concentration). The acidified samples were centrifuged at 4° C. and 17 000×g and the supernatants were analyzed by HPLC-hrMS.
# The formation of glycerate was analyzed using an Agilent 6550 iFunnel Q-TOF LC-MS system equipped with an electrospray ionization source set to negative ionization mode. […]
# LC-MS data were analyzed using MassHunter Qualitative Analysis software (Agilent). […] In such assays the tartronate semialdehyde can be covalently derivatized with phenylhydrazine to a phenylhydrazone, which can be detected by its absorbance at 324 nm and confirmed by its corresponding mass spectrum. […]
# malonyl-CoA = conditions: 0.3 mM substrate, 37° C., Kröger et al. 2011; cited from earlier work
# tartronyl-CoA = assay: malonyl-CoA reductase spectrophotometric assay, NADPH oxidation at 365 nm, tartronyl-CoA into glycerate (reactions 4# and 5); format: biochemical; conditions: 0.25 mM tartronyl-CoA, 37° C.
# Description: The kinetics of the MCRCa enzyme for enzymatically converting the substrate tartonyl-CoA into glycerate (via reactions 4# and 5 both catalyzed by MCRCa) were determined spectrophotometrically at 365 nm following the oxidation of NADPH. Per molecule tartronyl-CoA, two molecules of NADPH are oxidized by MCRCa (a first in reaction 4# and a second in reaction 5) The measurements were carried out at 37° C. in a total reaction volume of 200 μL containing 100 mM MOPS buffer (with 5 mM MgCl2, pH 7.5) with an initial NADPH concentration of 0.4 mM NADPH and 23 μg MCRCa.
# An alternative enzyme for catalyzing the conversion of tartonyl-CoA into glycerate (via reactions 4# and 5) is the MCR from Erythrobacter sp. NAP1 (MCRE). It was tested for its activity with malonyl-CoA and for tartronyl-CoA with the assay described above for MCRCa.
molecule,measurement,setting,value
"O=C(O)COP(=O)(O)O [2-PG, 2-phosphoglycolate]",type of inhibition of 3-phosphoglycerate kinase,[1],competitive inhibitor
CC(C)(COP(=O)(O)OP(=O)(O)OC[C@H]1O[C@@H](n2cnc3c(N)ncnc32)[C@H](O)[C@@H]1OP(=O)(O)O)[C@@H](O)C(=O)NCCC(=O)NCCSC(=O)CC(=O)O [malonyl-CoA],Km,[2],30 µM
B1,Km,[3],51.7 ± 9.6 mM (glycolate) mM
B2,reduction of tartronyl-CoA to glycerate (HPLC-hrMS),glycolyl-CoA,"able to reduce the tartronyl-CoA, produced by PCCMe_D407I_Y143H, to glycerate"
same,specific activity with malonyl-CoA,malonyl-CoA,approximately 7 U mg^−1
same,specific activity with tartronyl-CoA,tartronyl-CoA,0.6 U mg^−1
